Experimental data taken from patent publication US20040146906A1.

Molecular target: PTH receptor 1 on ROS 17/2.8 rat osteoblast cells (rat) (UniProt P25961)
Assay: cell-based or functional assay

Sequence of UniProt P25961 (P25961 27-591): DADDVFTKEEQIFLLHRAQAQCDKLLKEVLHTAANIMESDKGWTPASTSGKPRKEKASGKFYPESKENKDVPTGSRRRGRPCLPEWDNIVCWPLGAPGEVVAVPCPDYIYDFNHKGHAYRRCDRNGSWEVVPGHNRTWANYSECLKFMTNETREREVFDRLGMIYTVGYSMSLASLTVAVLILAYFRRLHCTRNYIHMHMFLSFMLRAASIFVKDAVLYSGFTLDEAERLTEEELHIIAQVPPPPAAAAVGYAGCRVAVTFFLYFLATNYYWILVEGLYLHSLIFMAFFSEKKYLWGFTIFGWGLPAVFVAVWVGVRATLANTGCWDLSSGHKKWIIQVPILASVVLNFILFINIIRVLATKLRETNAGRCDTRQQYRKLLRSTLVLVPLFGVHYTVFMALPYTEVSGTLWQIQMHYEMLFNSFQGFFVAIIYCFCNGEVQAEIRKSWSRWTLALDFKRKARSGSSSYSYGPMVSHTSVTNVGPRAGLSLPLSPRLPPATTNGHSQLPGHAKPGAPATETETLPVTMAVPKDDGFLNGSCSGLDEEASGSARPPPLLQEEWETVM

PAIGB expression (fold induction): 6 fold
Substance: human PTH (1-34) (from UniProt P01270 32-65) (peptide)
